Data reported in US7456001B2, “Lipoxygenase” (Novozymes A/S, priority 2000, dated 2008).

Legend:
lipoxygenase = lipoxygenase (Gaeumannomyces tritici, UniProt Q8X150); assay: Determination of substrate specificity (Michaelis-Menten kinetics, hydroperoxide formation at 234 nm); conditions: lipoxygenase produced as in Example 4, standard assay, 25° C., pH 7.0
Protocol: (§1) The lipoxygenase activity was determined spectrophotometrically at 25° C. by monitoring the formation of hydroperoxides. […] The enzyme was typically diluted sufficiently to ensure a turn-over of maximally 10% of the added substrate within the first minute. The absorbance at 234 nm was followed and the rate was estimated from the linear part of the curve. One unit causes an increase in absorbance at 234 nm of 0.001/min.
(§2) The substrate specificity of the lipoxygenase was studied using the standard assays condition with a number of different compounds as substrate. All substrates were produced as dispersions with 0.2%(v/v) Tween20. The amount of compound added to make up these stock solutions was determined by mass, since viscosity made accurate measurement of volume impossible. The limiting rate constant and the specificity constant were determined by varying the amount of substrate added in the assays. The resulting rates were plotted against the concentration of substrate used. Finally, the plots were fitted by non-linear least squares regression to the theoretical hyperbolic curve of the Michaelis-Menten equation. The cis-trans-conjugated hydro(pero)xy fatty acids were assumed to have a molecular extinction coefficient of 23,000 M^−1 cm^−1.
(§3) The activity of lipoxygenase produced as in Example 4 was tested on various substrates as described above. The results are expressed as kcat (or Vmax), KM and kcat/KM according to the Michaelis-Menten equation:

[1] = tested on: CCCCC/C=C\C/C=C\CCCCCCCCO; assay: purified protein, by the assay type; conditions: other: lipoxygenase produced as in Example 4, standard assay, 25° C., pH 7.0
Protocol: as §1, §2, §3

[2] = tested on: CCCCC/C=C\C/C=C\C/C=C\C/C=C\CCCC(=O)O; assay: purified protein, by the assay type; conditions: other: lipoxygenase produced as in Example 4, standard assay, 25° C., pH 7.0
Protocol: as §1, §2, §3

[3] = tested on: CCCCC/C=C\C/C=C\CCCCCCCC(=O)OC; assay: purified protein, by the assay type; conditions: other: lipoxygenase produced as in Example 4, standard assay, 25° C., pH 7.0
Protocol: as §1, §2, §3

Chain of lipoxygenase (Q8X150 17-618): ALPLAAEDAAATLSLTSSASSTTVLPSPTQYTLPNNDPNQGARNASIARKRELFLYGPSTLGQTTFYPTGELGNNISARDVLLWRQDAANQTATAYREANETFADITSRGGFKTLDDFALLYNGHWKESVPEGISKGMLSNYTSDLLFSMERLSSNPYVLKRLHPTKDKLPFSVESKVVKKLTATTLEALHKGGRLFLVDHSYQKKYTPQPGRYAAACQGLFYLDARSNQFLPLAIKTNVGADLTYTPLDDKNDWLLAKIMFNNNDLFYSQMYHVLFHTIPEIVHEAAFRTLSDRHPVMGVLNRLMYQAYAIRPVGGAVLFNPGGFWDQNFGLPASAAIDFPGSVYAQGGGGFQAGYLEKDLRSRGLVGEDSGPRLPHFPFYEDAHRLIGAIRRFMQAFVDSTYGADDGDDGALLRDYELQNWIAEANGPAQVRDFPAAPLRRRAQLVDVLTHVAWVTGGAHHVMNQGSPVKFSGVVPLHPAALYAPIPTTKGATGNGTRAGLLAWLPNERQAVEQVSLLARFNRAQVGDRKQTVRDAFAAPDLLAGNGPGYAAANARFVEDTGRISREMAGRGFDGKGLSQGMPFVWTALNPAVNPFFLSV

Compound	kcat (lipoxygenase; kcat (or Vmax)) [micro-mol/min/mg]	Km (lipoxygenase) [µM]	Km [1] [µM]	Km [2] [µM]	Km [3] [µM]
CCCCC/C=C\C/C=C\CCCCCCCC(=O)O [Linoleic acid]	5.63	6.8	–	–	–
lipoxygenase (Gaeumannomyces tritici)	–	–	3.4	17.5	164
